Reference: US20250352661A1 (MYTHIC THERAPEUTICS, published 2025)

T1: Human LRRC15 Protein, His Tag (Acro Biosystems) (human, UniProt Q8TF66 22-538, limits assumed)
T1 construct: not shown: His tag
T1 sequence (looked up): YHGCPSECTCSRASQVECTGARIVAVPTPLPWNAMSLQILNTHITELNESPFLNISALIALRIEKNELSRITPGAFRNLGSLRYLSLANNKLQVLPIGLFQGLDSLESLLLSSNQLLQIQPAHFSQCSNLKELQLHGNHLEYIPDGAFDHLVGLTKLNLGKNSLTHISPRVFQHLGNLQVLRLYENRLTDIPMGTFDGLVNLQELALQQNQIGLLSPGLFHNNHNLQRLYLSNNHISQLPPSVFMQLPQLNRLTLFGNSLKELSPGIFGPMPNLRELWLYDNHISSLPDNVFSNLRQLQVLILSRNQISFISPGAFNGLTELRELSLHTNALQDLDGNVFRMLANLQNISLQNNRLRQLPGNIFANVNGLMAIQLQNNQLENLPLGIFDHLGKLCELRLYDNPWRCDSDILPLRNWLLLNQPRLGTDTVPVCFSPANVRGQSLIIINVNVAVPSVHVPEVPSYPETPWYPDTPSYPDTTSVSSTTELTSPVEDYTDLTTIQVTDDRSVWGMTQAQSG

T2: Human LRRC15 Protein, His Tag (Acro Biosystems) (human, UniProt Q8TF66 22-538, limits assumed)
T2 construct: Bought protein with His tag
T2 sequence (looked up): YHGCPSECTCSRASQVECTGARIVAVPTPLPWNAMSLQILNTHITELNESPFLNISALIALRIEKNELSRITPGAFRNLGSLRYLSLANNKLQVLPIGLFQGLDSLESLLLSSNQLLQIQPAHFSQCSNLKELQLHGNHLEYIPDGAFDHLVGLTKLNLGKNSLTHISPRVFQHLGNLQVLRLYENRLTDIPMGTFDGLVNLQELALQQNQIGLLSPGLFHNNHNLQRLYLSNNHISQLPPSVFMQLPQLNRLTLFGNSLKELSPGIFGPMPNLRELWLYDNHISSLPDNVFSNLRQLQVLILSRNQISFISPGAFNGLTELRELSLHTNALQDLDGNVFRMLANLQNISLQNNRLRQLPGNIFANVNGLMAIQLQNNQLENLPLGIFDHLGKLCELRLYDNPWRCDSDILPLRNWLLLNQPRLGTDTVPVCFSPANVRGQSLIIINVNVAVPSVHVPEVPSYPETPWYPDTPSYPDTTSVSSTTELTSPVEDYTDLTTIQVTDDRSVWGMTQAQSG


Target: T1, Human LRRC15 Protein, His Tag (Acro …)
Assay: BLI; dissociation pH 7.4 black, pH 5.4 grey [D00016 FIG. 3B]

binding result | Binder
binds | MYT7926 (antibody, V domains shown, tested as culture supernatant; also called 24D9 VL Q24H) VH: QQQLVESGGGLVKPGASLTLTCKASGFSFSGSYWICWVRQAPGKGLEWIGCINGGSLDITYYASWAKGRFTISKASSTTVTLQKTSLTAADTATYFCASDTSYTAYGNFYFNLWGPGTLVTVSS VL: AQVLTQTASPVSAAVGGTVTINCHSSQSVLNNNWLAWYQQKPGQPPKLLIYDASSLASGVPSRFKGSGSGTQFTLTISDLESDDAATYYCQGEFSCGSADCNAFGGGTEVVVKG
no binding (tested: 50 nM LRRC15) | MYT7936 (antibody, V domains shown, tested as culture supernatant; also called 24D9 VL W34H) VH: QQQLVESGGGLVKPGASLTLTCKASGFSFSGSYWICWVRQAPGKGLEWIGCINGGSLDITYYASWAKGRFTISKASSTTVTLQKTSLTAADTATYFCASDTSYTAYGNFYFNLWGPGTLVTVSS VL: AQVLTQTASPVSAAVGGTVTINCQSSQSVLNNNHLAWYQQKPGQPPKLLIYDASSLASGVPSRFKGSGSGTQFTLTISDLESDDAATYYCQGEFSCGSADCNAFGGGTEVVVKG
binds | MYT7933 (antibody, V domains shown, also called 24D9 VL N31H) VH: QQQLVESGGGLVKPGASLTLTCKASGFSFSGSYWICWVRQAPGKGLEWIGCINGGSLDITYYASWAKGRFTISKASSTTVTLQKTSLTAADTATYFCASDTSYTAYGNFYFNLWGPGTLVTVSS VL: AQVLTQTASPVSAAVGGTVTINCQSSQSVLHNNWLAWYQQKPGQPPKLLIYDASSLASGVPSRFKGSGSGTQFTLTISDLESDDAATYYCQGEFSCGSADCNAFGGGTEVVVKG
binds | MYT7930 (antibody, V domains shown, tested as culture supernatant; also called 24D9 VL S28H) VH: QQQLVESGGGLVKPGASLTLTCKASGFSFSGSYWICWVRQAPGKGLEWIGCINGGSLDITYYASWAKGRFTISKASSTTVTLQKTSLTAADTATYFCASDTSYTAYGNFYFNLWGPGTLVTVSS VL: AQVLTQTASPVSAAVGGTVTINCQSSQHVLNNNWLAWYQQKPGQPPKLLIYDASSLASGVPSRFKGSGSGTQFTLTISDLESDDAATYYCQGEFSCGSADCNAFGGGTEVVVKG
binds | MYT7937 (antibody, V domains shown, tested as culture supernatant; also called 24D9 VL L35H) VH: QQQLVESGGGLVKPGASLTLTCKASGFSFSGSYWICWVRQAPGKGLEWIGCINGGSLDITYYASWAKGRFTISKASSTTVTLQKTSLTAADTATYFCASDTSYTAYGNFYFNLWGPGTLVTVSS VL: AQVLTQTASPVSAAVGGTVTINCQSSQSVLNNNWHAWYQQKPGQPPKLLIYDASSLASGVPSRFKGSGSGTQFTLTISDLESDDAATYYCQGEFSCGSADCNAFGGGTEVVVKG
no binding (tested: 50 nM LRRC15) | MYT7931 (antibody, V domains shown, tested as culture supernatant; also called 24D9 VL V29H) VH: QQQLVESGGGLVKPGASLTLTCKASGFSFSGSYWICWVRQAPGKGLEWIGCINGGSLDITYYASWAKGRFTISKASSTTVTLQKTSLTAADTATYFCASDTSYTAYGNFYFNLWGPGTLVTVSS VL: AQVLTQTASPVSAAVGGTVTINCQSSQSHLNNNWLAWYQQKPGQPPKLLIYDASSLASGVPSRFKGSGSGTQFTLTISDLESDDAATYYCQGEFSCGSADCNAFGGGTEVVVKG
binds | MYT7935 (antibody, V domains shown, also called 24D9 VL N33H) VH: QQQLVESGGGLVKPGASLTLTCKASGFSFSGSYWICWVRQAPGKGLEWIGCINGGSLDITYYASWAKGRFTISKASSTTVTLQKTSLTAADTATYFCASDTSYTAYGNFYFNLWGPGTLVTVSS VL: AQVLTQTASPVSAAVGGTVTINCQSSQSVLNNHWLAWYQQKPGQPPKLLIYDASSLASGVPSRFKGSGSGTQFTLTISDLESDDAATYYCQGEFSCGSADCNAFGGGTEVVVKG
no binding (tested: 50 nM LRRC15) | MYT7932 (antibody, V domains shown, tested as culture supernatant; also called 24D9 VL L30H) VH: QQQLVESGGGLVKPGASLTLTCKASGFSFSGSYWICWVRQAPGKGLEWIGCINGGSLDITYYASWAKGRFTISKASSTTVTLQKTSLTAADTATYFCASDTSYTAYGNFYFNLWGPGTLVTVSS VL: AQVLTQTASPVSAAVGGTVTINCQSSQSVHNNNWLAWYQQKPGQPPKLLIYDASSLASGVPSRFKGSGSGTQFTLTISDLESDDAATYYCQGEFSCGSADCNAFGGGTEVVVKG
binds | MYT7929 (antibody, V domains shown, tested as culture supernatant; also called 24D9 VL Q27H) VH: QQQLVESGGGLVKPGASLTLTCKASGFSFSGSYWICWVRQAPGKGLEWIGCINGGSLDITYYASWAKGRFTISKASSTTVTLQKTSLTAADTATYFCASDTSYTAYGNFYFNLWGPGTLVTVSS VL: AQVLTQTASPVSAAVGGTVTINCQSSHSVLNNNWLAWYQQKPGQPPKLLIYDASSLASGVPSRFKGSGSGTQFTLTISDLESDDAATYYCQGEFSCGSADCNAFGGGTEVVVKG
binds | MYT7928 (antibody, V domains shown, tested as culture supernatant; also called 24D9 VL S26H) VH: QQQLVESGGGLVKPGASLTLTCKASGFSFSGSYWICWVRQAPGKGLEWIGCINGGSLDITYYASWAKGRFTISKASSTTVTLQKTSLTAADTATYFCASDTSYTAYGNFYFNLWGPGTLVTVSS VL: AQVLTQTASPVSAAVGGTVTINCQSHQSVLNNNWLAWYQQKPGQPPKLLIYDASSLASGVPSRFKGSGSGTQFTLTISDLESDDAATYYCQGEFSCGSADCNAFGGGTEVVVKG
binds | MYT7934 (antibody, V domains shown, tested as culture supernatant; also called 24D9 VL N32H) VH: QQQLVESGGGLVKPGASLTLTCKASGFSFSGSYWICWVRQAPGKGLEWIGCINGGSLDITYYASWAKGRFTISKASSTTVTLQKTSLTAADTATYFCASDTSYTAYGNFYFNLWGPGTLVTVSS VL: AQVLTQTASPVSAAVGGTVTINCQSSQSVLNHNWLAWYQQKPGQPPKLLIYDASSLASGVPSRFKGSGSGTQFTLTISDLESDDAATYYCQGEFSCGSADCNAFGGGTEVVVKG
no binding (tested: 50 nM LRRC15) | MYT7938 (antibody, V domains shown, tested as culture supernatant; also called 24D9 VL A36H) VH: QQQLVESGGGLVKPGASLTLTCKASGFSFSGSYWICWVRQAPGKGLEWIGCINGGSLDITYYASWAKGRFTISKASSTTVTLQKTSLTAADTATYFCASDTSYTAYGNFYFNLWGPGTLVTVSS VL: AQVLTQTASPVSAAVGGTVTINCQSSQSVLNNNWLHWYQQKPGQPPKLLIYDASSLASGVPSRFKGSGSGTQFTLTISDLESDDAATYYCQGEFSCGSADCNAFGGGTEVVVKG
binds | MYT7927 (antibody, V domains shown, tested as culture supernatant; also called 24D9 VL S25H) VH: QQQLVESGGGLVKPGASLTLTCKASGFSFSGSYWICWVRQAPGKGLEWIGCINGGSLDITYYASWAKGRFTISKASSTTVTLQKTSLTAADTATYFCASDTSYTAYGNFYFNLWGPGTLVTVSS VL: AQVLTQTASPVSAAVGGTVTINCQHSQSVLNNNWLAWYQQKPGQPPKLLIYDASSLASGVPSRFKGSGSGTQFTLTISDLESDDAATYYCQGEFSCGSADCNAFGGGTEVVVKG

Target: T2, Human LRRC15 Protein, His Tag (Acro …)
Assay: BLI; dissociation pH 7.4 black, pH 5.4 grey [1/2); D00013 FIG. 2B (1/2]

binding result | Binder
binds | MYT7907 (antibody, V domains shown, rabbit 24D9 VH A66H; chimeric, human constant regions) VH: QQQLVESGGGLVKPGASLTLTCKASGFSFSGSYWICWVRQAPGKGLEWIGCINGGSLDITYYASWHKGRFTISKASSTTVTLQKTSLTAADTATYFCASDTSYTAYGNFYFNLWGPGTLVTVSS VL: AQVLTQTASPVSAAVGGTVTINCQSSQSVLNNNWLAWYQQKPGQPPKLLIYDASSLASGVPSRFKGSGSGTQFTLTISDLESDDAATYYCQGEFSCGSADCNAFGGGTEVVVKG
binds | MYT7910 (antibody, V domains shown, rabbit 24D9 VH A98H; chimeric, human constant regions) VH: QQQLVESGGGLVKPGASLTLTCKASGFSFSGSYWICWVRQAPGKGLEWIGCINGGSLDITYYASWAKGRFTISKASSTTVTLQKTSLTAADTATYFCHSDTSYTAYGNFYFNLWGPGTLVTVSS VL: AQVLTQTASPVSAAVGGTVTINCQSSQSVLNNNWLAWYQQKPGQPPKLLIYDASSLASGVPSRFKGSGSGTQFTLTISDLESDDAATYYCQGEFSCGSADCNAFGGGTEVVVKG
no binding (tested: 50 nM LRRC15) | MYT7911 (antibody, V domains shown, rabbit 24D9 VH S99H; chimeric, human constant regions) VH: QQQLVESGGGLVKPGASLTLTCKASGFSFSGSYWICWVRQAPGKGLEWIGCINGGSLDITYYASWAKGRFTISKASSTTVTLQKTSLTAADTATYFCAHDTSYTAYGNFYFNLWGPGTLVTVSS VL: AQVLTQTASPVSAAVGGTVTINCQSSQSVLNNNWLAWYQQKPGQPPKLLIYDASSLASGVPSRFKGSGSGTQFTLTISDLESDDAATYYCQGEFSCGSADCNAFGGGTEVVVKG
binds | MYT7909 (antibody, V domains shown, rabbit 24D9 VH G68H; chimeric, human constant regions) VH: QQQLVESGGGLVKPGASLTLTCKASGFSFSGSYWICWVRQAPGKGLEWIGCINGGSLDITYYASWAKHRFTISKASSTTVTLQKTSLTAADTATYFCASDTSYTAYGNFYFNLWGPGTLVTVSS VL: AQVLTQTASPVSAAVGGTVTINCQSSQSVLNNNWLAWYQQKPGQPPKLLIYDASSLASGVPSRFKGSGSGTQFTLTISDLESDDAATYYCQGEFSCGSADCNAFGGGTEVVVKG
binds | MYT7908 (antibody, V domains shown, rabbit 24D9 VH K67H; chimeric, human constant regions) VH: QQQLVESGGGLVKPGASLTLTCKASGFSFSGSYWICWVRQAPGKGLEWIGCINGGSLDITYYASWAHGRFTISKASSTTVTLQKTSLTAADTATYFCASDTSYTAYGNFYFNLWGPGTLVTVSS VL: AQVLTQTASPVSAAVGGTVTINCQSSQSVLNNNWLAWYQQKPGQPPKLLIYDASSLASGVPSRFKGSGSGTQFTLTISDLESDDAATYYCQGEFSCGSADCNAFGGGTEVVVKG
